Source: publication PMC4958977, “Revisiting the mechanism of coagulation factor XIII activation and regulation from a structure/functional perspective” (Scientific Reports, 2016)

Molecular target: the molecule itself
Assay: SEC; 25 ug purified FXIIIA2B2 incubated with 46.2 U/mL thrombin and 25 mM CaCl2, 20 mM Tris, 120 mM NaCl, pH 7.4, 60 minutes at 30 degrees; Superdex 200 PC 3.2/30; peaks checked by native PAGE and mass spectrometry

B1: coagulation factor XIII B subunit (natural protein, human, UniProt P05160 21-661, looked up)
chain: EEKPCGFPHVENGRIAQYYYTFKSFYFPMSIDKKLSFFCLAGYTTESGRQEEQTTCTTEGWSPEPRCFKKCTKPDLSNGYISDVKLLYKIQENMRYGCASGYKTTGGKDEEVVQCLSDGWSSQPTCRKEHETCLAPELYNGNYSTTQKTFKVKDKVQYECATGYYTAGGKKTEEVECLTYGWSLTPKCTKLKCSSLRLIENGYFHPVKQTYEEGDVVQFFCHENYYLSGSDLIQCYNFGWYPESPVCEGRRNRCPPPPLPINSKIQTHSTTYRHGEIVHIECELNFEIHGSAEIRCEDGKWTEPPKCIEGQEKVACEEPPFIENGAANLHSKIYYNGDKVTYACKSGYLLHGSNEITCNRGKWTLPPECVENNENCKHPPVVMNGAVADGILASYATGSSVEYRCNEYYLLRGSKISRCEQGKWSSPPVCLEPCTVNVDYMNRNNIEMKWKYEGKVLHGDLIDFVCKQGYDLSPLTPLSELSVQCNRGEVKYPLCTRKESKGMCTSPPLIKHGVIISSTVDTYENGSSVEYRCFDHHFLEGSREAYCLDGMWTTPPLCLEPCTLSFTEMEKNNLLLKWDFDNRPHILHGEYIEFICRGDTYPAELYITGSILRMQCDRGQLKYPRCIPRQSTLSYQEPLRT
notes: human coagulation factor XIII B subunit from plasma, ten Sushi domains; 80 kDa; also called FXIIIB; FXIIIB2; source: purified as FXIIIA2B2 from plasma concentrate Fibrogammin P (CSL Behring), gel filtration on Superdex 200
- binding result: binds
